The test addresses human cathepsin B (Recombinant Human Procathepsin B, Novoprotein, converted into active form) (human, UniProt P07858 80-333). As to the kind of experiment: enzyme inhibition.

B1: Stefin A-derived antibody Fab (Fab, V domains shown)
VH: not shown
VL: DIQMTQSPSSLSASVGDRVTITCRASQDVNVVAGTTAVAWYQQKPGKAPKLLIYGGSKSLPGQNEDLSGGFLYSGVPSRFSGSRSGTDFTLTISSLQPEDFATYYCQQHLGGPITTPPTFGQGTKLEIKR
As to B1, the Ki was 225 nM.

(Values after patent US20190119403A1 (published 2019).)
